Residue numbers refer to the chain shown, from its start. Names and notes keep the numbering of the source.
Legend:
Format in all cases: cell-based, human
[1] = system: wild-type and variant SNAP-GIPR; experiment: Surface SNAP-GIPR expression (SNAP-tag labelling) in AD293 cells; conditions: for AD293 Surface: Fig S3E, mean; for Surface SNAP-GIPR expression: sheet Fig 1C;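 for all read-outs here: scaled to the experimental average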
In short: (§1)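 Surface GIPR is quantified from wide-field images after labelling intact transfected cells with a membrane-impermeant SNAP probe at 500 nM for 10 min at room temperature. Specific signal, corrected for nontransfected cells, is normalized to the experiment-wide average or to wild-type.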

[2] = system: wild-type and variant SNAP-GIPR; experiment: Surface SNAP-GIPR expression (SNAP-tag labelling) in INS-1 cells; conditions: Fig 4G; Mean
In short: as §1

[3] = system: wild-type and variant SNAP-GIPR; experiment: Single-concentration GIP cAMP response by HTRF in AD293 cells; conditions: Fig S3F, HTRF, mean;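 note: ratio to experiment-wide average response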
Description: (§2) All variants were tested in parallel on each occasion to control for transfection efficiency differences between experiments.

[4] = system: wild-type and variant SNAP-GIPR; experiment: Single-concentration GIP cAMP response by HTRF in INS-1 cells; conditions: Fig S3E, mean
Description: as §2

[5] = system: wild-type and variant SNAP-GIPR; experiment: cADDis cAMP imaging in AD293 cells, ensemble, expression-matched and per decile; conditions: Fig S3F, cADDis, mean
In short: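 Transient SNAP-GIPR plus cADDis BacMam in AD293; 24 h; SNAP-Surface AF647 500 nM, 10 min RT; wide-field 10X imaging at 37°C in KRBH/6 mM glucose/0.1% BSA. Cells failing IBMX/FSK response criteria excluded.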

[6] = system: wild-type and variant SNAP-GIPR; experiment: Constitutive and agonist-mediated internalization, reversible SNAP-tag labelling, AD293 cells; parameters: key to Internalisation, Vehicle / Internalisation, +GIP / Internalisation, GIP-only: % internalization: residual fluorescence after Mesna vs pre-Mesna; Surface expression: unit not given here; conditions: Mean; for +GIP internalisation (100 nM) / GIP-specific internalisation (100 nM) / Constitutive internalisation (100 nM) / Surface expression: Fig 4E; for +GIP internalisation (100 nM) / GIP-specific internalisation (100 nM): GIP 100 nM; for Internalisation, +GIP / Internalisation, GIP-only / Internalisation, Vehicle: Fig S4C, AD293
In short: (§3)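 Surface SNAP-GIPR signal removable by Mesna was tracked by imaging before and 10 min after treatment in pH 8.6 TNE buffer. Internalization is the Mesna-resistant share of specific fluorescence.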

[7] = system: wild-type and variant SNAP-GIPR; experiment: Constitutive and agonist-mediated internalization, reversible SNAP-tag labelling, INS-1 cells; parameters: key to Internalisation, GIP-only / Internalisation, Vehicle / Internalisation, +GIP: % internalization: residual fluorescence after Mesna vs pre-Mesna; conditions: Mean; for +GIP internalisation (100 nM) / GIP-specific internalisation (100 nM) / Constitutive internalisation (100 nM): Fig 4G; for +GIP internalisation (100 nM) / GIP-specific internalisation (100 nM): GIP 100 nM; for Internalisation, +GIP / Internalisation, GIP-only / Internalisation, Vehicle: Fig S4C, INS-1
In short: as §3

[8] = column repeated, paired with cAMP 100 nM

B1: L262H (protein, UniProt P48546 22-466, looked up, variant L262H)
Gastric inhibitory …: RAETGSKGQTAGELYQRWERYRRECQETLAAAEPPSGLACNGSFDMYVCWDYAAPNATARASCPWYLPWHHHVAAGFVLRQCGSDGQWGLWRDHTQCENPEKNEAFLDQRLILERLQVMYTVGYSLSLATLLLALLILSLFRRLHCTRNYIHINLFTSFMLRAAAILSRDRLLPRPGPYLGDQALALWNQALAACRTAQIVTQYCVGANYTWLLVEGVYLHSLLVLVGGSEEGHFRYYLLHGWGAPALFVIPWVIVRYLYENTQCWERNEVKAIWWIIRTPILMTILINFLIFIRILGILLSKLRTRQMRCRDYRLRLARSTLTLVPLLGVHEVVFAPVTEEQARGALRFAKLGFEIFLSSFQGFLVSVLYCFINKEVQSEIRRGWHHCRLRRSLGEEQRQLPERAFRALPSGSGPGEVPTSRGLSSGTLPGPGNEASRELESYC
AD293 Surface [1, 8]: 0.4082 | AD293 Surface ([1]; paired with cAMP 100 pM): 0.4082 | Surface SNAP-GIPR expression ([1]; replicate 1): 0.05586 | Surface SNAP-GIPR expression ([1]; replicate 2): 0.3975 | Surface SNAP-GIPR expression ([1]; replicate 3): 0.3851 | Surface SNAP-GIPR expression ([1]; replicate 4): 0.346 | Surface SNAP-GIPR expression ([1]; replicate 5): 0.2997 | Surface SNAP-GIPR expression ([1]; replicate 6): 0.4709 | Surface SNAP-GIPR expression ([1]; replicate 7): 0.6801 | Surface SNAP-GIPR expression ([1]; replicate 8): 0.6962 | Surface SNAP-GIPR expression ([1]; replicate 9): 0.3552 | Surface SNAP-GIPR expression ([1]; replicate 10): 0.4769 | Surface SNAP-GIPR expression ([1]; replicate 11): 0.4805 | Surface SNAP-GIPR expression ([1]; replicate 12): 0.4059 | Surface SNAP-GIPR expression ([1]; replicate 13): 0.3345 | Surface SNAP-GIPR expression ([1]; replicate 14): 0.4406 | Surface SNAP-GIPR expression ([1]; replicate 15): 0.3425 | Surface SNAP-GIPR expression ([1]; replicate 16): 0.4438 | Surface SNAP-GIPR expression ([1]; replicate 17): 0.4347 | Surface SNAP-GIPR expression ([1]; replicate 18): 0.4011 | Surface SNAP-GIPR expression ([1]; replicate 19): 0.3575 | Surface SNAP-GIPR expression ([1]; replicate 20): 0.2679 | Surface SNAP-GIPR expression ([1]; replicate 21): 0.3532 | Surface SNAP-GIPR expression ([1]; replicate 22): 0.4093 | Surface SNAP-GIPR expression ([1]; replicate 23): 0.4836 | Surface SNAP-GIPR expression ([1]; replicate 24): 0.3698 | Surface SNAP-GIPR expression ([1]; replicate 25): 0.4044 | Surface SNAP-GIPR expression ([1]; replicate 26): 0.4747 | Surface SNAP-GIPR expression ([1]; replicate 27): 0.4781 | Surface SNAP-GIPR expression ([1]; replicate 28): 0.4405 | Surface SNAP-GIPR expression ([1]; replicate 29): 0.3368 | Surface SNAP-GIPR expression ([1]; replicate 30): 0.4516 | Surface SNAP-GIPR expression ([1]; replicate 31): 0.3843 | Surface SNAP-GIPR expression ([1]; replicate 32): 0.4196 | Surface SNAP-GIPR expression ([1]; replicate 33): 0.4081 | Surface SNAP-GIPR expression ([1]; replicate 34): 0.4658 | Surface SNAP-GIPR expression ([1]; replicate 35): 0.5726 | Surface SNAP-GIPR expression ([1]; replicate 36): 0.3172 | Surface SNAP-GIPR expression ([1]; replicate 37): 0.2985 | Surface SNAP-GIPR expression ([1]; replicate 38): 0.4456 | Surface SNAP-GIPR expression ([1]; replicate 39): 0.3825 | Surface SNAP-GIPR expression ([1]; replicate 40): 0.3992 | Surface SNAP-GIPR expression ([1]; replicate 41): 0.3665 | Surface expression [2]: 0.4629 | AD293 100 pM HTRF [3]: 0.1729 | AD293 100 nM HTRF [3]: 1.14 | INS-1 cAMP (100 nM) [4]: 0.9739 | AD293 100 pM cADDis [5]: 18.6863 | AD293 100 nM cADDis [5]: 34.26 | +GIP internalisation (100 nM) [6]: 0.2171 | GIP-specific internalisation (100 nM) [6]: 0.04083 | Constitutive internalisation (100 nM) [6]: 0.1763 | Surface expression [6]: 0.3728 | Internalisation, +GIP [6]: 58.197 | Internalisation, GIP-only [6]: 10.9885 | Internalisation, Vehicle [6]: 47.2085 | +GIP internalisation (100 nM) [7]: 0.2099 | GIP-specific internalisation (100 nM) [7]: 0.0574 | Constitutive internalisation (100 nM) [7]: 0.1525 | Internalisation, +GIP [7]: 50.32 | Internalisation, GIP-only [7]: 13.8767 | Internalisation, Vehicle [7]: 36.4433

B2: D66G (protein, UniProt P48546 22-466, looked up, variant D66G)
Gastric inhibitory …: B1 Gastric inhibitory … with D45G, H241L
AD293 Surface [1, 8]: 0.2845 | AD293 Surface ([1]; paired with cAMP 100 pM): 0.2845 | Surface SNAP-GIPR expression ([1]; replicate 1): 0.2625 | Surface SNAP-GIPR expression ([1]; replicate 2): 0.397 | Surface SNAP-GIPR expression ([1]; replicate 3): 0.1659 | Surface SNAP-GIPR expression ([1]; replicate 4): 0.02117 | Surface SNAP-GIPR expression ([1]; replicate 5): 0.3372 | Surface SNAP-GIPR expression ([1]; replicate 6): 0.161 | Surface SNAP-GIPR expression ([1]; replicate 7): 0.3578 | Surface SNAP-GIPR expression ([1]; replicate 8): 0.377 | Surface SNAP-GIPR expression ([1]; replicate 9): 0.35 | Surface SNAP-GIPR expression ([1]; replicate 10): 0.5096 | Surface SNAP-GIPR expression ([1]; replicate 11): 0.4534 | Surface SNAP-GIPR expression ([1]; replicate 12): 0.5149 | Surface SNAP-GIPR expression ([1]; replicate 13): 0.197 | Surface SNAP-GIPR expression ([1]; replicate 14): 0.2293 | Surface SNAP-GIPR expression ([1]; replicate 15): 0.3425 | Surface SNAP-GIPR expression ([1]; replicate 16): 0.4052 | Surface SNAP-GIPR expression ([1]; replicate 17): 0.4309 | Surface SNAP-GIPR expression ([1]; replicate 18): 0.3854 | Surface SNAP-GIPR expression ([1]; replicate 19): 0.4111 | Surface SNAP-GIPR expression ([1]; replicate 20): 0.3991 | Surface SNAP-GIPR expression ([1]; replicate 21): 0.5534 | Surface SNAP-GIPR expression ([1]; replicate 22): 0.4128 | Surface SNAP-GIPR expression ([1]; replicate 23): 0.3708 | Surface SNAP-GIPR expression ([1]; replicate 24): 0.3827 | Surface SNAP-GIPR expression ([1]; replicate 25): 0.2399 | Surface SNAP-GIPR expression ([1]; replicate 26): 0.2568 | Surface SNAP-GIPR expression ([1]; replicate 27): 0.1279 | Surface SNAP-GIPR expression ([1]; replicate 28): 0.1278 | Surface SNAP-GIPR expression ([1]; replicate 29): 0.1867 | Surface SNAP-GIPR expression ([1]; replicate 30): 0.2491 | Surface SNAP-GIPR expression ([1]; replicate 31): 0.2077 | Surface SNAP-GIPR expression ([1]; replicate 32): 0.1171 | Surface SNAP-GIPR expression ([1]; replicate 33): 0.1153 | Surface SNAP-GIPR expression ([1]; replicate 34): 0.2022 | Surface SNAP-GIPR expression ([1]; replicate 35): 0.2952 | Surface SNAP-GIPR expression ([1]; replicate 36): 0.2071 | Surface SNAP-GIPR expression ([1]; replicate 37): 0.2146 | Surface SNAP-GIPR expression ([1]; replicate 38): 0.1357 | Surface SNAP-GIPR expression ([1]; replicate 39): 0.1562 | Surface SNAP-GIPR expression ([1]; replicate 40): 0.1831 | Surface SNAP-GIPR expression ([1]; replicate 41): 0.2136 | Surface expression [2]: 0.1735 | AD293 100 pM HTRF [3]: 0.1227 | AD293 100 nM HTRF [3]: 0.328 | INS-1 cAMP (100 nM) [4]: -0.2661 | AD293 100 pM cADDis [5]: -0.704 | AD293 100 nM cADDis [5]: 4.118 | +GIP internalisation (100 nM) [6]: 0.106 | GIP-specific internalisation (100 nM) [6]: -0.001031 | Constitutive internalisation (100 nM) [6]: 0.1071 | Surface expression [6]: 0.1742 | Internalisation, +GIP [6]: 61.627 | Internalisation, GIP-only [6]: -0.8775 | Internalisation, Vehicle [6]: 62.5045 | +GIP internalisation (100 nM) [7]: 0.08951 | GIP-specific internalisation (100 nM) [7]: -0.01151 | Constitutive internalisation (100 nM) [7]: 0.101 | Internalisation, +GIP [7]: 50.62 | Internalisation, GIP-only [7]: -7.618 | Internalisation, Vehicle [7]: 58.2383
